In patent US20170327545A1:
Substitutions are numbered along the chain they refer to. In names and notes the source's numbering stands.

How the values were obtained:
[1] = molecular target: human polyclonal IgG (Gammanorm) (human); assay: SPR (Biacore), retained IgG binding capacity after 96 NaOH cycles, ratio to reference Domain 3
[2] = molecular target: human polyclonal IgG (Gammanorm) (human); assay: SPR (Biacore), ligand amine-coupled to chip, 1 mg/ml human polyclonal IgG flowed; IgG binding signal left after 96 cycles of 10 min 100 mM NaOH
[3] = molecular target: human polyclonal IgG (Gammanorm) (human); assay: SPR (Biacore), retained IgG binding capacity after 96 NaOH cycles, ratio to reference Domain 3 (itself, second run)
[4] = molecular target: human polyclonal IgG (Gammanorm) (human); assay: SPR (Biacore), retained IgG binding capacity after 96 NaOH cycles, ratio to reference Domain 3 (itself)
[5] = molecular target: human polyclonal IgG (Gammanorm) (human); assay: SPR (Biacore), ligand amine-coupled to chip, 1 mg/ml human polyclonal IgG flowed; IgG binding signal left after 96 cycles of 10 min 100 mM NaOH (second run, reference for the Q19 mutants)
[6] = molecular target: Purified Fab prepared from a papain-digested IgG mAb; assay: dynamic binding capacity at 10% breakthrough, ligand multipoint-coupled to agarose beads (9.5 mg/ml), 1 mg/ml Fab, residence time 4 min
[7] = molecular target: Purified Dab prepared from heat-treated E. coli supernatant; assay: dynamic binding capacity at 10% breakthrough, ligand multipoint-coupled to agarose beads (9.5 mg/ml), 1 mg/ml Dab, residence time 4 min
[8] = molecular target: Purified Fab prepared from a papain-digested IgG mAb; assay: dynamic binding capacity at 10% breakthrough, ligand multipoint-coupled to agarose beads (8.8 mg/ml), 1 mg/ml Fab, residence time 4 min
[9] = molecular target: Purified Dab prepared from heat-treated E. coli supernatant; assay: dynamic binding capacity at 10% breakthrough, ligand multipoint-coupled to agarose beads (8.8 mg/ml), 1 mg/ml Dab, residence time 4 min
[10] = molecular target: human polyclonal IgG (Gammanorm) (human); assay: SPR (Biacore), ligand amine-coupled to chip, 1 mg/ml human polyclonal IgG flowed; IgG binding signal left after 100 cycles of 10 min 100 mM NaOH
[11] = molecular target: human polyclonal IgG (Gammanorm) (human); assay: SPR (Biacore), retained IgG binding capacity after 100 NaOH cycles, ratio to reference Protein L (itself)
[12] = molecular target: human polyclonal IgG (Gammanorm) (human); assay: SPR (Biacore), retained IgG binding capacity after 96 NaOH cycles, ratio to reference Protein L (itself)
[13] = molecular target: Purified Dab prepared from heat-treated E. coli supernatant; assay: dynamic binding capacity at 10% breakthrough, ligand multipoint-coupled to agarose beads (11.0 mg/ml), 1 mg/ml Dab, residence time 4 min
[14] = molecular target: Purified Fab prepared from a papain-digested IgG mAb; assay: dynamic binding capacity at 10% breakthrough, ligand multipoint-coupled to agarose beads (11.0 mg/ml), 1 mg/ml Fab, residence time 4 min

B1: Domain 4 (D4) of Peptostreptococcus magnus Protein L (protein)
chain: AQVPKEEVTIKANLIYADGKTQTAEFKGTFAEATAEAYRYADLLAKENGKYTADLEDGGYTINIRFAGKKVDEKPEEC
In the case of B1, the Sample/ref. ratio [1] is reported as 0.84 and the Retained capacity after 96 cycles (%) [2] is reported as 26%.

B2: Domain 3 (D3) of Peptostreptococcus magnus Protein L (protein)
chain: AQVPKEEVTIKANLIYADGKTQTAEFKGTFEEATAEAYRYADLLAKENGKYTVDVADKGYTLNIKFAGKEKTPEEC
For B2, the Sample/ref. ratio [3] was 1, the Sample/ref. ratio [4] was 1 and the Retained capacity after 96 cycles (%) [5] was 28%. For the same binder, the Retained capacity after 96 cycles (%) [2] was 31%.

B3: Domain 2 (D2) of Protein L, variant with alanine in position 31 (protein)
chain: B2 chain with T34A, L43A, A45K, E47D, K50E
In the case of B3, the Sample/ref. ratio [1] is reported as 0.71 and the Retained capacity after 96 cycles (%) [2] is reported as 22%.

B4: D3(N10Q, N45A, N60Q)2 (designed binder)
chain: PKEEVTIKAQLIYADGKTQTAEFKGTFEEATAEAYRYADLLAKEAGKYTVDVADKGYTLQIKFAGKEKTPEEPKEEVTIKAQLIYADGKTQTAEFKGTFEEATAEAYRYADLLAKEAGKYTVDVADKGYTLQIKFAGKEKTPEE
B4 was tested, and the QB10 Fab [6] was 19.3 mg/mL and the QB10 Dab [7] was 15.4 mg/mL.

B5: D3(N10Q, N45A, N60Q)4 (designed binder)
chain: PKEEVTIKAQLIYADGKTQTAEFKGTFEEATAEAYRYADLLAKEAGKYTVDVADKGYTLQIKFAGKEKTPEEPKEEVTIKAQLIYADGKTQTAEFKGTFEEATAEAYRYADLLAKEAGKYTVDVADKGYTLQIKFAGKEKTPEEPKEEVTIKAQLIYADGKTQTAEFKGTFEEATAEAYRYADLLAKEAGKYTVDVADKGYTLQIKFAGKEKTPEEPKEEVTIKAQLIYADGKTQTAEFKGTFEEATAEAYRYADLLAKEAGKYTVDVADKGYTLQIKFAGKEKTPEE
B5 gave a QB10 Fab [8] of 19.3 mg/mL and a QB10 Dab [9] of 15.9 mg/mL.

B6: Domain 1 (D1) of Peptostreptococcus magnus Protein L (protein)
chain: AQVSEEEVTIKANLIFANGSTQTAEFKGTFEKATSEAYAYADTLKKDNGEYTVDVADKGYTLNIKFAGKEKTPEEC
B6 gave a Sample/ref. ratio [1] of 0.42 and a Retained capacity after 96 cycles (%) [2] of 13%.

B7: Protein L (four kappa light chain-binding domains, with additional AIHNRA sequence at the N-terminus) (protein)
chain: AIHNRAKEETPETPETDSEEEVTIKANLIFANGSTQTAEFKGTFEKATSEAYAYADTLKKDNGEYTVDVADKGYTLNIKFAGKEKTPEEPKEEVTIKANLIYADGKTQTAEFKGTFEEATAEAYRYADALKKDNGEYTVDVADKGYTLNIKFAGKEKTPEEPKEEVTIKANLIYADGKTQTAEFKGTFEEATAEAYRYADLLAKENGKYTVDVADKGYTLNIKFAGKEKTPEEPKEEVTIKANLIYADGKTQTAEFKGTFAEATAEAYRYADLLAKENGKYTADLEDGGYTINIRFAGKKVDEKPEE
Binder B7 has a Retained capacity after 100 cycles (%) [10] of 23%, a Sample/ref. ratio [11] of 1 and a Sample/ref. ratio [12] of 1. For the same binder, the Retained capacity after 96 cycles (%) [2] was 28%.

B8: D3(N10Q, N45A, N60Q)6 (designed binder)
chain: PKEEVTIKAQLIYADGKTQTAEFKGTFEEATAEAYRYADLLAKEAGKYTVDVADKGYTLQIKFAGKEKTPEEPKEEVTIKAQLIYADGKTQTAEFKGTFEEATAEAYRYADLLAKEAGKYTVDVADKGYTLQIKFAGKEKTPEEPKEEVTIKAQLIYADGKTQTAEFKGTFEEATAEAYRYADLLAKEAGKYTVDVADKGYTLQIKFAGKEKTPEEPKEEVTIKAQLIYADGKTQTAEFKGTFEEATAEAYRYADLLAKEAGKYTVDVADKGYTLQIKFAGKEKTPEEPKEEVTIKAQLIYADGKTQTAEFKGTFEEATAEAYRYADLLAKEAGKYTVDVADKGYTLQIKFAGKEKTPEEPKEEVTIKAQLIYADGKTQTAEFKGTFEEATAEAYRYADLLAKEAGKYTVDVADKGYTLQIKFAGKEKTPEE
With B8 the QB10 Dab [13] was 16.7 mg/mL and the QB10 Fab [14] was 21.1 mg/mL.
